What was measured:
[1] = target: T1, Zap1 (Saccharomyces cerevisiae) (UniProt P47043); settings: 200 nM
T1 sequence: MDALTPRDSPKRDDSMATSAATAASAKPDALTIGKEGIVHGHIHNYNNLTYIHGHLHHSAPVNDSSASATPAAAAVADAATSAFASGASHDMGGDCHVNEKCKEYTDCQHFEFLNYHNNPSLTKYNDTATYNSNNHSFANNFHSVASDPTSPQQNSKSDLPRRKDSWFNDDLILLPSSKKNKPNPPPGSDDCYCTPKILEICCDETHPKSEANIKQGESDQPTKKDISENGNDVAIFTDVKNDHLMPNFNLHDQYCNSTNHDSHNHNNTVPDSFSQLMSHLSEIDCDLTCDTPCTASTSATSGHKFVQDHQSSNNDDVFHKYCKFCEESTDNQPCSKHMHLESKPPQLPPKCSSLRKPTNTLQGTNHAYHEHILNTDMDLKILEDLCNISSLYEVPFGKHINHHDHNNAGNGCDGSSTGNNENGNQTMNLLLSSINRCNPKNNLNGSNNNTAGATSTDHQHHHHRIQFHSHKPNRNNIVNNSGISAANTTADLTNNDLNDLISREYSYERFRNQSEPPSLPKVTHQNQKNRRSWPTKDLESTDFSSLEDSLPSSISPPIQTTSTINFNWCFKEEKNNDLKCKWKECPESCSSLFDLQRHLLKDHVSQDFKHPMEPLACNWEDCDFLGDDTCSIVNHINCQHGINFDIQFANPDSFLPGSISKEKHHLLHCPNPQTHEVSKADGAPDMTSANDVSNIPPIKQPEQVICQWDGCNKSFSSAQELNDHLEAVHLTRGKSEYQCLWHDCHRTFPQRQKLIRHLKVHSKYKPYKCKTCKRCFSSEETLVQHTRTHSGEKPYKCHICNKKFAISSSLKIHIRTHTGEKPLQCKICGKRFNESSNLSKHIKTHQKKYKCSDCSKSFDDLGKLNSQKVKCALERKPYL

[2] = target: T2, Cin5 (Saccharomyces cerevisiae) (UniProt P40917); settings: 100 nM
T2 sequence: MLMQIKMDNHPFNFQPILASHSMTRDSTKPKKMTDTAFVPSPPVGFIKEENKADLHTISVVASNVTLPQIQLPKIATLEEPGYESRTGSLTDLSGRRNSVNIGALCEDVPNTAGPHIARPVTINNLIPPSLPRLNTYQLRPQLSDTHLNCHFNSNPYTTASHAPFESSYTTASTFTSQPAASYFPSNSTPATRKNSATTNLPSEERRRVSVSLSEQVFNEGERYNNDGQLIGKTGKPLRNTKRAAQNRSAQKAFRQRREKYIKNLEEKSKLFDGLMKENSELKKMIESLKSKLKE

[3] = target: T3, Sko1 (Saccharomyces cerevisiae) (UniProt Q02100); settings: 200 nM
T3 sequence: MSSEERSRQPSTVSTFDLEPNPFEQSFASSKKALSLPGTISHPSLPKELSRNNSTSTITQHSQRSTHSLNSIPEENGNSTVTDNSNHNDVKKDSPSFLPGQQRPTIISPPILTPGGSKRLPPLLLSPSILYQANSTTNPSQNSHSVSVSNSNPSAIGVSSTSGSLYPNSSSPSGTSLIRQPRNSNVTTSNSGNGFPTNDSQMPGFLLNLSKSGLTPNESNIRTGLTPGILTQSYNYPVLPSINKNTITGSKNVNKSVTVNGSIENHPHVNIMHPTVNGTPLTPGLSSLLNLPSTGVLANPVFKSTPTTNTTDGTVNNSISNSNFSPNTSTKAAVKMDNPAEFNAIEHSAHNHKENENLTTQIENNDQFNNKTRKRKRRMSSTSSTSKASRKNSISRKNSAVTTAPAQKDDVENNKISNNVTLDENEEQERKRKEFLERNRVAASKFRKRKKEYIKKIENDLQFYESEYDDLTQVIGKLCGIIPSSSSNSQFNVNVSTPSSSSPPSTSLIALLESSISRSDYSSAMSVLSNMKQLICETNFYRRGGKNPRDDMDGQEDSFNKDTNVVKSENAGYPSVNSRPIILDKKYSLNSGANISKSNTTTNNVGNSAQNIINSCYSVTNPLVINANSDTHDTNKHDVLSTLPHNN

[4] = target: T4, Yer184c (Saccharomyces cerevisiae) (UniProt P39961); settings: 100 nM
T4 sequence: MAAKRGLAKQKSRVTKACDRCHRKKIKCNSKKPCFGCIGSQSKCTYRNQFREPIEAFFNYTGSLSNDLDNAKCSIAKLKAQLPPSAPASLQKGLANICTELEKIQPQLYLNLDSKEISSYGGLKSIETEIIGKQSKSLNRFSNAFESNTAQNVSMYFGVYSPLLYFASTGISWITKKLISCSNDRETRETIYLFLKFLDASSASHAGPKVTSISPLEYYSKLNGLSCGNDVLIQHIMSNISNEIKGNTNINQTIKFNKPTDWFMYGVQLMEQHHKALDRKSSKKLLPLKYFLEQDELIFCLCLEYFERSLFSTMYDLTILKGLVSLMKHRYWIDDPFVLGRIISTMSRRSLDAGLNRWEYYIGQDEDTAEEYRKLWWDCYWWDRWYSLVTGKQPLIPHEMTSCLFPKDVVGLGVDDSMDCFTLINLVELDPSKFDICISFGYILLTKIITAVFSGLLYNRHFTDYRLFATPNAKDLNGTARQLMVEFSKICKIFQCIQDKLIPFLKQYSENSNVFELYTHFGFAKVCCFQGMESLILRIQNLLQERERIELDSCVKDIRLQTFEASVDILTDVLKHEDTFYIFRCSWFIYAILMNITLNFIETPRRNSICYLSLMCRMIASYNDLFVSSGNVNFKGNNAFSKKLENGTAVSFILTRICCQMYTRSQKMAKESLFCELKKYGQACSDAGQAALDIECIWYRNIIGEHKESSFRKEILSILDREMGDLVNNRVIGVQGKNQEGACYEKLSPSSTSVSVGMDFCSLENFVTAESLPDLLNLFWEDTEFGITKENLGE

[5] = target: T5, Ybr033w (Saccharomyces cerevisiae) (UniProt P38073); settings: 200 nM
T5 sequence: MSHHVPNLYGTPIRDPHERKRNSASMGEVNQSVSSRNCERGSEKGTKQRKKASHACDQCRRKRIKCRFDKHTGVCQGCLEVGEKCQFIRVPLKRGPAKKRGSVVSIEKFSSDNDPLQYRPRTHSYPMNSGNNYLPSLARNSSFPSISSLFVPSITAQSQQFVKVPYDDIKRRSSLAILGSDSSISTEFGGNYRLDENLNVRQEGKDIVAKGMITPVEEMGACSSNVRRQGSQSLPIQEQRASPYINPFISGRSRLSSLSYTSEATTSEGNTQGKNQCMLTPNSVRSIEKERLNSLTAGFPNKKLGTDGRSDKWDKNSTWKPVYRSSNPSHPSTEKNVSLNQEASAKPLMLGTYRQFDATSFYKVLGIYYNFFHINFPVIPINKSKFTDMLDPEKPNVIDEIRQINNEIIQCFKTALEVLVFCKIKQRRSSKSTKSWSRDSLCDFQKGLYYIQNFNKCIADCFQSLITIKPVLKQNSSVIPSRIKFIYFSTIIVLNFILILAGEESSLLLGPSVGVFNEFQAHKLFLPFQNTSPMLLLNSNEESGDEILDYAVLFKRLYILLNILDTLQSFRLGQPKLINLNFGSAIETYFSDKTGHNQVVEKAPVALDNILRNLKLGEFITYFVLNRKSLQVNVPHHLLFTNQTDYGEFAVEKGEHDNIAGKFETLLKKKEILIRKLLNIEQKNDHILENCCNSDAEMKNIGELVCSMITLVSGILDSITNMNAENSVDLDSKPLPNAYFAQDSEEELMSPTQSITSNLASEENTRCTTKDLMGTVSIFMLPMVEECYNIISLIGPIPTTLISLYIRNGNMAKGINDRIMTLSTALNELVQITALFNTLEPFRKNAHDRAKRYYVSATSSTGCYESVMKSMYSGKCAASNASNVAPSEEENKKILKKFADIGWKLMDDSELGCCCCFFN

AAAGGTTA (double strand) [8-mer AAAGGTTA]
binding signal (PBM E-score (-0.5 to 0.5)) [1]: 0.479

AAGGGTTA (double strand) [8-mer AAGGGTTA]
binding signal (PBM E-score (-0.5 to 0.5)) [1]: 0.489

AAGGTTAT (double strand) [8-mer AAGGTTAT]
binding signal (PBM E-score (-0.5 to 0.5)) [1]: 0.478

ACGTAAGC (double strand) [8-mer ACGTAAGC]
binding signal (PBM E-score (-0.5 to 0.5)) [2]: 0.483

ACGTAATA (double strand) [8-mer ACGTAATA]
binding signal (PBM E-score (-0.5 to 0.5)) [3]: 0.493 | binding signal (PBM E-score (-0.5 to 0.5)) [2]: 0.455

AGAGGTTA (double strand) [8-mer AGAGGTTA]
binding signal (PBM E-score (-0.5 to 0.5)) [1]: 0.476

AGGGGTTA (double strand) [8-mer AGGGGTTA]
binding signal (PBM E-score (-0.5 to 0.5)) [1]: 0.479

AGGGTTAC (double strand) [8-mer AGGGTTAC]
binding signal (PBM E-score (-0.5 to 0.5)) [1]: 0.484

AGGGTTAT (double strand) [8-mer AGGGTTAT]
binding signal (PBM E-score (-0.5 to 0.5)) [1]: 0.49

AGGTTACC (double strand) [8-mer AGGTTACC]
binding signal (PBM E-score (-0.5 to 0.5)) [1]: 0.476

ATAACCCC (double strand) [8-mer ATAACCCC]
binding signal (PBM E-score (-0.5 to 0.5)) [1]: 0.476

ATAACCTC (double strand) [8-mer ATAACCTC]
binding signal (PBM E-score (-0.5 to 0.5)) [1]: 0.487

CAGGGTTA (double strand) [8-mer CAGGGTTA]
binding signal (PBM E-score (-0.5 to 0.5)) [1]: 0.477

CATAACCC (double strand) [8-mer CATAACCC]
binding signal (PBM E-score (-0.5 to 0.5)) [1]: 0.482

CCATAACC (double strand) [8-mer CCATAACC]
binding signal (PBM E-score (-0.5 to 0.5)) [1]: 0.479

CCGGAAAA (double strand) [8-mer CCGGAAAA]
binding signal (PBM E-score (-0.5 to 0.5)) [4]: 0.46

CCGGCCGG (double strand) [8-mer CCGGCCGG]
binding signal (PBM E-score (-0.5 to 0.5)) [4]: 0.486

CGCCGGCG (double strand) [8-mer CGCCGGCG]
binding signal (PBM E-score (-0.5 to 0.5)) [4]: 0.485

CGGAAAAA (double strand) [8-mer CGGAAAAA]
binding signal (PBM E-score (-0.5 to 0.5)) [5]: 0.495

CGGAACAA (double strand) [8-mer CGGAACAA]
binding signal (PBM E-score (-0.5 to 0.5)) [5]: 0.491

CGGATAAA (double strand) [8-mer CGGATAAA]
binding signal (PBM E-score (-0.5 to 0.5)) [5]: 0.488

CGGATCAA (double strand) [8-mer CGGATCAA]
binding signal (PBM E-score (-0.5 to 0.5)) [5]: 0.472

CGGATTAA (double strand) [8-mer CGGATTAA]
binding signal (PBM E-score (-0.5 to 0.5)) [5]: 0.482

CGTAACCC (double strand) [8-mer CGTAACCC]
binding signal (PBM E-score (-0.5 to 0.5)) [1]: 0.482

CGTAAGCA (double strand) [8-mer CGTAAGCA]
binding signal (PBM E-score (-0.5 to 0.5)) [2]: 0.463

CGTAATCA (double strand) [8-mer CGTAATCA]
binding signal (PBM E-score (-0.5 to 0.5)) [2]: 0.458

CTTACGTA (double strand) [8-mer CTTACGTA]
binding signal (PBM E-score (-0.5 to 0.5)) [2]: 0.472

GCCGCGGC (double strand) [8-mer GCCGCGGC]
binding signal (PBM E-score (-0.5 to 0.5)) [4]: 0.475

GGAAAAAA (double strand) [8-mer GGAAAAAA]
binding signal (PBM E-score (-0.5 to 0.5)) [5]: 0.472

GGAAAAAC (double strand) [8-mer GGAAAAAC]
binding signal (PBM E-score (-0.5 to 0.5)) [5]: 0.476

GGTTATGA (double strand) [8-mer GGTTATGA]
binding signal (PBM E-score (-0.5 to 0.5)) [1]: 0.48

GTCCGGAC (double strand) [8-mer GTCCGGAC]
binding signal (PBM E-score (-0.5 to 0.5)) [4]: 0.464

TATCCGGA (double strand) [8-mer TATCCGGA]
binding signal (PBM E-score (-0.5 to 0.5)) [4]: 0.454

TCGGCCGA (double strand) [8-mer TCGGCCGA]
binding signal (PBM E-score (-0.5 to 0.5)) [4]: 0.473

TGACATAA (double strand) [8-mer TGACATAA]
binding signal (PBM E-score (-0.5 to 0.5)) [2]: 0.462

TGACGTAA (double strand) [8-mer TGACGTAA]
binding signal (PBM E-score (-0.5 to 0.5)) [3]: 0.498 | binding signal (PBM E-score (-0.5 to 0.5)) [2]: 0.453

TTACATAA (double strand) [8-mer TTACATAA]
binding signal (PBM E-score (-0.5 to 0.5)) [2]: 0.488

TTACCTAA (double strand) [8-mer TTACCTAA]
binding signal (PBM E-score (-0.5 to 0.5)) [2]: 0.451

TTATATAA (double strand) [8-mer TTATATAA]
binding signal (PBM E-score (-0.5 to 0.5)) [2]: 0.456
